Measurements from paper PMC12416549 (2024).

T1: TNFR1 (Homo sapiens, UniProt P19438)
T1 chain: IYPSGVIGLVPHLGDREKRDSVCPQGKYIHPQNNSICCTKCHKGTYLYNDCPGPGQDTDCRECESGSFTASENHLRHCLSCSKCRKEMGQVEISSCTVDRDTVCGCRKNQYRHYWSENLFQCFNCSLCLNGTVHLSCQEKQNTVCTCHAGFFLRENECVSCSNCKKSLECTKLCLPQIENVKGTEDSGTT


Biological target: T1, TNFR1
Assay: yeast display SC50

apparent Kd (screen) [nM]	Binder
1.05	K71Y (designed binder) SMEEEVEKAAKEYEKKKKEAIEKHLEKLKAKDKEAAERFLKELEEAAKEYAKDEAKTMSEEEAKRRAKKYYEKVLLSELSEEEQKEIKEAEEKLVRTILKYVEEAAK
0.718	E61F (designed binder) SMEEEVEKAAKEYEKKKKEAIEKHLEKLKAKDKEAAERFLKELEEAAKEYAKDEAKTMSEFEAKRRAKKYKEKVLLSELSEEEQKEIKEAEEKLVRTILKYVEEAAK
2.73	M58L (designed binder) SMEEEVEKAAKEYEKKKKEAIEKHLEKLKAKDKEAAERFLKELEEAAKEYAKDEAKTLSEEEAKRRAKKYKEKVLLSELSEEEQKEIKEAEEKLVRTILKYVEEAAK
1.4	K64T (designed binder) SMEEEVEKAAKEYEKKKKEAIEKHLEKLKAKDKEAAERFLKELEEAAKEYAKDEAKTMSEEEATRRAKKYKEKVLLSELSEEEQKEIKEAEEKLVRTILKYVEEAAK
1.05	A36S (designed binder) SMEEEVEKAAKEYEKKKKEAIEKHLEKLKAKDKEASERFLKELEEAAKEYAKDEAKTMSEEEAKRRAKKYKEKVLLSELSEEEQKEIKEAEEKLVRTILKYVEEAAK
0.539	K41I (designed binder) SMEEEVEKAAKEYEKKKKEAIEKHLEKLKAKDKEAAERFLIELEEAAKEYAKDEAKTMSEEEAKRRAKKYKEKVLLSELSEEEQKEIKEAEEKLVRTILKYVEEAAK
13.8	L43R (designed binder) SMEEEVEKAAKEYEKKKKEAIEKHLEKLKAKDKEAAERFLKEREEAAKEYAKDEAKTMSEEEAKRRAKKYKEKVLLSELSEEEQKEIKEAEEKLVRTILKYVEEAAK
1.86	A46C (designed binder) SMEEEVEKAAKEYEKKKKEAIEKHLEKLKAKDKEAAERFLKELEECAKEYAKDEAKTMSEEEAKRRAKKYKEKVLLSELSEEEQKEIKEAEEKLVRTILKYVEEAAK
0.79	K88V (designed binder) SMEEEVEKAAKEYEKKKKEAIEKHLEKLKAKDKEAAERFLKELEEAAKEYAKDEAKTMSEEEAKRRAKKYKEKVLLSELSEEEQKEIVEAEEKLVRTILKYVEEAAK
12.5	D53V (designed binder) SMEEEVEKAAKEYEKKKKEAIEKHLEKLKAKDKEAAERFLKELEEAAKEYAKVEAKTMSEEEAKRRAKKYKEKVLLSELSEEEQKEIKEAEEKLVRTILKYVEEAAK
0.49	M2A (designed binder) SAEEEVEKAAKEYEKKKKEAIEKHLEKLKAKDKEAAERFLKELEEAAKEYAKDEAKTMSEEEAKRRAKKYKEKVLLSELSEEEQKEIKEAEEKLVRTILKYVEEAAK
1.05	S77W (designed binder) SMEEEVEKAAKEYEKKKKEAIEKHLEKLKAKDKEAAERFLKELEEAAKEYAKDEAKTMSEEEAKRRAKKYKEKVLLWELSEEEQKEIKEAEEKLVRTILKYVEEAAK
0.49	L40E (designed binder) SMEEEVEKAAKEYEKKKKEAIEKHLEKLKAKDKEAAERFEKELEEAAKEYAKDEAKTMSEEEAKRRAKKYKEKVLLSELSEEEQKEIKEAEEKLVRTILKYVEEAAK
1.27	L25V (designed binder) SMEEEVEKAAKEYEKKKKEAIEKHVEKLKAKDKEAAERFLKELEEAAKEYAKDEAKTMSEEEAKRRAKKYKEKVLLSELSEEEQKEIKEAEEKLVRTILKYVEEAAK
1.54	L28K (designed binder) SMEEEVEKAAKEYEKKKKEAIEKHLEKKKAKDKEAAERFLKELEEAAKEYAKDEAKTMSEEEAKRRAKKYKEKVLLSELSEEEQKEIKEAEEKLVRTILKYVEEAAK
0.869	K15I (designed binder) SMEEEVEKAAKEYEIKKKEAIEKHLEKLKAKDKEAAERFLKELEEAAKEYAKDEAKTMSEEEAKRRAKKYKEKVLLSELSEEEQKEIKEAEEKLVRTILKYVEEAAK

The remaining lines, values behind:

Binder	apparent Kd (screen) [nM]
I87M (designed binder) SMEEEVEKAAKEYEKKKKEAIEKHLEKLKAKDKEAAERFLKELEEAAKEYAKDEAKTMSEEEAKRRAKKYKEKVLLSELSEEEQKEMKEAEEKLVRTILKYVEEAAK	10.4
E61R (designed binder) SMEEEVEKAAKEYEKKKKEAIEKHLEKLKAKDKEAAERFLKELEEAAKEYAKDEAKTMSEREAKRRAKKYKEKVLLSELSEEEQKEIKEAEEKLVRTILKYVEEAAK	2.48
A90Q (designed binder) SMEEEVEKAAKEYEKKKKEAIEKHLEKLKAKDKEAAERFLKELEEAAKEYAKDEAKTMSEEEAKRRAKKYKEKVLLSELSEEEQKEIKEQEEKLVRTILKYVEEAAK	0.49
E83T (designed binder) SMEEEVEKAAKEYEKKKKEAIEKHLEKLKAKDKEAAERFLKELEEAAKEYAKDEAKTMSEEEAKRRAKKYKEKVLLSELSEETQKEIKEAEEKLVRTILKYVEEAAK	0.49
E34L (designed binder) SMEEEVEKAAKEYEKKKKEAIEKHLEKLKAKDKLAAERFLKELEEAAKEYAKDEAKTMSEEEAKRRAKKYKEKVLLSELSEEEQKEIKEAEEKLVRTILKYVEEAAK	0.446
E61C (designed binder) SMEEEVEKAAKEYEKKKKEAIEKHLEKLKAKDKEAAERFLKELEEAAKEYAKDEAKTMSECEAKRRAKKYKEKVLLSELSEEEQKEIKEAEEKLVRTILKYVEEAAK	1.86
V74E (designed binder) SMEEEVEKAAKEYEKKKKEAIEKHLEKLKAKDKEAAERFLKELEEAAKEYAKDEAKTMSEEEAKRRAKKYKEKELLSELSEEEQKEIKEAEEKLVRTILKYVEEAAK	0.304
A106Q (designed binder) SMEEEVEKAAKEYEKKKKEAIEKHLEKLKAKDKEAAERFLKELEEAAKEYAKDEAKTMSEEEAKRRAKKYKEKVLLSELSEEEQKEIKEAEEKLVRTILKYVEEAQK	2.05
K88E (designed binder) SMEEEVEKAAKEYEKKKKEAIEKHLEKLKAKDKEAAERFLKELEEAAKEYAKDEAKTMSEEEAKRRAKKYKEKVLLSELSEEEQKEIEEAEEKLVRTILKYVEEAAK	0.49
R38N (designed binder) SMEEEVEKAAKEYEKKKKEAIEKHLEKLKAKDKEAAENFLKELEEAAKEYAKDEAKTMSEEEAKRRAKKYKEKVLLSELSEEEQKEIKEAEEKLVRTILKYVEEAAK	2.48
E54T (designed binder) SMEEEVEKAAKEYEKKKKEAIEKHLEKLKAKDKEAAERFLKELEEAAKEYAKDTAKTMSEEEAKRRAKKYKEKVLLSELSEEEQKEIKEAEEKLVRTILKYVEEAAK	12.5
A36F (designed binder) SMEEEVEKAAKEYEKKKKEAIEKHLEKLKAKDKEAFERFLKELEEAAKEYAKDEAKTMSEEEAKRRAKKYKEKVLLSELSEEEQKEIKEAEEKLVRTILKYVEEAAK	1.27
E60G (designed binder) SMEEEVEKAAKEYEKKKKEAIEKHLEKLKAKDKEAAERFLKELEEAAKEYAKDEAKTMSGEEAKRRAKKYKEKVLLSELSEEEQKEIKEAEEKLVRTILKYVEEAAK	1.54
R66E (designed binder) SMEEEVEKAAKEYEKKKKEAIEKHLEKLKAKDKEAAERFLKELEEAAKEYAKDEAKTMSEEEAKREAKKYKEKVLLSELSEEEQKEIKEAEEKLVRTILKYVEEAAK	18.3
K88W (designed binder) SMEEEVEKAAKEYEKKKKEAIEKHLEKLKAKDKEAAERFLKELEEAAKEYAKDEAKTMSEEEAKRRAKKYKEKVLLSELSEEEQKEIWEAEEKLVRTILKYVEEAAK	0.49
K15S (designed binder) SMEEEVEKAAKEYESKKKEAIEKHLEKLKAKDKEAAERFLKELEEAAKEYAKDEAKTMSEEEAKRRAKKYKEKVLLSELSEEEQKEIKEAEEKLVRTILKYVEEAAK	0.653
E4D (designed binder) SMEDEVEKAAKEYEKKKKEAIEKHLEKLKAKDKEAAERFLKELEEAAKEYAKDEAKTMSEEEAKRRAKKYKEKVLLSELSEEEQKEIKEAEEKLVRTILKYVEEAAK	0.446
A35W (designed binder) SMEEEVEKAAKEYEKKKKEAIEKHLEKLKAKDKEWAERFLKELEEAAKEYAKDEAKTMSEEEAKRRAKKYKEKVLLSELSEEEQKEIKEAEEKLVRTILKYVEEAAK	1.86
E22M (designed binder) SMEEEVEKAAKEYEKKKKEAIMKHLEKLKAKDKEAAERFLKELEEAAKEYAKDEAKTMSEEEAKRRAKKYKEKVLLSELSEEEQKEIKEAEEKLVRTILKYVEEAAK	0.539
